Measured values as given in WO2014037419A1 (dated 2014).

Tests used:
[1] = target: T1, Mouse CD74 on cells (C57Black/6 PECs, MC-38, 3LL) (mouse) (UniProt P04441); experiment: FACS, PECs of MIF-/- mice, APC-labeled MIF 200ng pre-incubated with the small molecule ISO-1 (20 nM)
T1 sequence: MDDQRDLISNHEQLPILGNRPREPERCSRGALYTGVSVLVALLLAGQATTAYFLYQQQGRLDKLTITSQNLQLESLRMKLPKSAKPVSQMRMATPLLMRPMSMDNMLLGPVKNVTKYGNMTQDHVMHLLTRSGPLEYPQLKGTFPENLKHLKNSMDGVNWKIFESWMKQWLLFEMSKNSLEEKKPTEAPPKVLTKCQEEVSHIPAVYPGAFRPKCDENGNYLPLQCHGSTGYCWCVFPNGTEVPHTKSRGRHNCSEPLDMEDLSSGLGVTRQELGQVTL

[2] = target: T1, Mouse CD74 on cells (C57Black/6 PECs, MC-38, 3LL) (mouse); experiment: FACS, PECs of WT mice, APC-labeled MIF 200ng pre-incubated with the small molecule ISO-1 (20 nM)
[3] = target: T1, Mouse CD74 on cells (C57Black/6 PECs, MC-38, 3LL) (mouse); experiment: FACS, PECs of WT mice, APC-labeled MIF 200ng alone (cells without MIF: 22.4)
[4] = target: T1, Mouse CD74 on cells (C57Black/6 PECs, MC-38, 3LL) (mouse); experiment: FACS, PECs of MIF-/- mice, APC-labeled MIF 200ng alone (cells without MIF: 25.6)
[5] = target: T2, Recombinant human CD74 73-232 (human, UniProt P04233 73-296); experiment: BIAcore SPR, biotinylated Nb_49 on streptavidin chip, recombinant human CD74 73-232 at 0.05-500 nM as analyte
T2 construct: Bought from R&D Systems (NP_004346.1); The entry includes the N-terminal hemagglutinin tag; also called R&D systems 3590-CD
T2 sequence: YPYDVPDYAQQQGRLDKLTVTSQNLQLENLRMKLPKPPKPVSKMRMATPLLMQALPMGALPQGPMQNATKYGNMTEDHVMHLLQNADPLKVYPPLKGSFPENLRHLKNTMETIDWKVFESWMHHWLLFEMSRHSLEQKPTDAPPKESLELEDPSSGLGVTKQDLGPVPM

[6] = target: T1, Mouse CD74 on cells (C57Black/6 PECs, MC-38, 3LL) (mouse); experiment: FACS competition, PECs of MIF-/- mice, APC-labeled MIF 200ng as competitor/tracer plus Nb_49 (5 ug or 0.3 nM)
[7] = target: T1, Mouse CD74 on cells (C57Black/6 PECs, MC-38, 3LL) (mouse); experiment: FACS competition, PECs of WT mice, APC-labeled MIF 200ng as competitor/tracer plus Nb_49 (5 ug or 0.3 nM)

B1: Recombinant human MIF 2-115 (ligand)
chain: PMFIVNTNVPRASVPDGFLSELTQQLAQATGKPPQYIAVHVVPDQLMAFGGSSEPCALCSLHSIGKIGGAQNRSYSKLLCGLLAERLRISPDRVYINYYDMNAASVGWNNSTFA
[1]
  mean fluorescence intensity of APC-labeled MIF bound to the cells: 61
[2]
  mean fluorescence intensity of APC-labeled MIF bound to the cells: 49.9
[3]
  mean fluorescence intensity of APC-labeled MIF bound to the cells: 64.8
[4]
  mean fluorescence intensity of APC-labeled MIF bound to the cells: 120

B2: NbhCD74n49 (VHH)
VHH: QVQLQESGGGSVQAGGSLRLSCVASGLVYSLKAYDWGWARQAPGKECELVGRIMPNGATVYIDSVKGRFIISRENSNNTVYLQMNSLKFEDTAVYYCARVGDPSGGWCKGQGTQVTVSS
notes: also called Nb_49; NB_49
[5]
  Kd: 5.73 nM
  koff: 0.000581 s⁻¹
  kon: 102000 M⁻¹ s⁻¹
[6]
  mean fluorescence intensity of APC-labeled MIF bound to the cells: 69.4
[7]
  mean fluorescence intensity of APC-labeled MIF bound to the cells: 46.2
